In assay [1] the target is T1, ErbB-3 receptor-Ig fusion (human, UniProt P21860 20-643; P21860 20-636). Briefly: 125I-HRG-β1 177-244 displacement, ErbB-3-Ig on plate.
Assay [2] addresses T2, ErbB-4 receptor-Ig fusion (human, UniProt Q15303 26-651; Q15303 26-640). Briefly: 125I-HRG-β1 177-244 displacement, ErbB-4-Ig on plate.
Assay [3] addresses T1, ErbB-3 receptor-Ig fusion. The experiment in a line: phage ELISA, competition with soluble ErbB-3-Ig; against wild-type HRG-β1 177-244 on phage. Background: ELISA stands for enzyme-linked immunosorbent assay.
Assay [4] deals with T2, ErbB-4 receptor-Ig fusion. Briefly: phage ELISA, competition with soluble ErbB-4-Ig; against wild-type HRG-β1 177-244 on phage.
The target in assay [5] is T1, ErbB-3 receptor-Ig fusion. The experiment in a line: phage ELISA, competition with soluble ErbB-3-Ig; against HRG8.
Experimental: (§1) Microtiter plates (Nunc Maxisorp™ 96-well plates, Inter Med, Denmark) for phage ELISA were prepared as follows. The wells were precoated overnight with 0.5 μg of rabbit anti-human IgG (Fc gamma fragment-specific) antibodies (Jackson Immunoresearch, West Grove, Pa.) in 100 μL 50 mM NaCO₃ (pH 9.6). The wells were blocked for 30 minutes (min) with 200 μL PBS containing 0.1% bovine serum albumin (BSA) and rinsed with wash buffer (PBS containing 0.05% Tween 20™). The wells were then coated with 0.1 μg ErbB-2/3-Ig in binding buffer (PBS, 0.1% BSA, 0.05% Tween 20™) for 1 h, and washed again.
(§2) Following incubation for 2 h at room temperature, plates were washed extensively and treated with a 1:900 dilution of anti-M13 horseradish peroxidase conjugate (Pharmacia, Piscataway, N.J.) for 20 min. The amount of phage binding was determined by assaying horseradish peroxidase activity using o-phenylenediamine dihydrochloride) substrate solution (Sigma Chemical Company, St. Louis, Mo.).
Assay [6] concerns the target T2, ErbB-4 receptor-Ig fusion. Briefly: phage ELISA, competition with soluble ErbB-4-Ig; against HRG8.
The target in assay [7] is ErbB-2/3 receptor-Ig fusion (human, UniProt P04626 23-652; P04626 23-645; P21860 20-643; P04626 23-645). Briefly: phage ELISA, competition with soluble ErbB-2/3-Ig.
Experimental: as §1, §2

By EC50 is commonly meant the concentration needed to bring the measured effect to its halfway point. The low end stands for higher potency in that assay, the high end for lower potency in that assay.

Positions count from the first letter of the chain named. Ends that are not written are not given here.

T2 sequence (Q15303 other isoform, or with tags, fused parts or gaps): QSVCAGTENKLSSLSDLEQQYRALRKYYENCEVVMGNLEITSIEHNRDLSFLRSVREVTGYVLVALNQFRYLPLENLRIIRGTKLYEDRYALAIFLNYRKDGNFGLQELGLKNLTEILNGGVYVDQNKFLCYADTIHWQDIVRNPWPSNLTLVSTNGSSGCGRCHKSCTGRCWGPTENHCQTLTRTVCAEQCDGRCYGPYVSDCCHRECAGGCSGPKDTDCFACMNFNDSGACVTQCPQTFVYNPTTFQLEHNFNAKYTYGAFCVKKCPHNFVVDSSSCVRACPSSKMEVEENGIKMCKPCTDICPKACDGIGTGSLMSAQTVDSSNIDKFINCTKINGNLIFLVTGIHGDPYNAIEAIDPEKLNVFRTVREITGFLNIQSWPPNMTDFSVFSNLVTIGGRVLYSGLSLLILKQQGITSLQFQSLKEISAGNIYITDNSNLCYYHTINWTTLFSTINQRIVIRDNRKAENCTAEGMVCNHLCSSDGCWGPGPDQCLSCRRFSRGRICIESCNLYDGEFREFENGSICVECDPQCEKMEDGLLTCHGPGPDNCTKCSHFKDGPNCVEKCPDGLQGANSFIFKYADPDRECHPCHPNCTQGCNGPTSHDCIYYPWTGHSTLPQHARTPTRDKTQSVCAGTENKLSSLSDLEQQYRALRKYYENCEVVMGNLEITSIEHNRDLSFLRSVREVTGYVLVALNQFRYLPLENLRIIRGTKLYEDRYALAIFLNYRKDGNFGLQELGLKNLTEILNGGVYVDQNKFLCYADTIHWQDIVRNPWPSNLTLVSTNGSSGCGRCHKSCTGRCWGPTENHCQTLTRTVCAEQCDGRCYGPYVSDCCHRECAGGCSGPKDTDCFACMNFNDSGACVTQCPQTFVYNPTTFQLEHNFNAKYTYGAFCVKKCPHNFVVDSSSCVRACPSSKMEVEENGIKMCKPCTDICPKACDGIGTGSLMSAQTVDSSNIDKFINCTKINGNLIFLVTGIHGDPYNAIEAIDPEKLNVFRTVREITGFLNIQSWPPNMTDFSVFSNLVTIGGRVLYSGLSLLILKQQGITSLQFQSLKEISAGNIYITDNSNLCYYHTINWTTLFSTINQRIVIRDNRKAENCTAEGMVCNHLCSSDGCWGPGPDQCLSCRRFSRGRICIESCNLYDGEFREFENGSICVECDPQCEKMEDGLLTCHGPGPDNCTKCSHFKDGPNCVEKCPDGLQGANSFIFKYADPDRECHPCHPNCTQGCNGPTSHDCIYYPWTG

With “Trx-HRG-β1 146-244 K211A fusion (from UniProt Q02297 146-244) (ligand)”, the EC50 in assay [1] turned out to be 248 nM; in assay [2], 124 nM.

Consider “Trx-HRG-β1 146-244 K200A fusion (from UniProt Q02297 146-244) (ligand)”, for which the values for the EC50 in assay [1] and in assay [2] were 45.4 nM and 16.9 nM, respectively.

Take “Trx-HRG-β1 146-244 P205A fusion (from UniProt Q02297 146-244) (ligand)”: the values for the 50% effective concentration (EC50) in assay [1] and in assay [2] were 39.5 nM and 34.2 nM, respectively.

For “Trx-HRG-β1 146-244 G218A fusion (from UniProt Q02297 146-244) (ligand)”, the values for the concentration giving a half-maximal response (EC50) in assay [1] and in assay [2] were 668 nM and 608 nM, respectively.

Consider “Trx-HRG-β1 146-244 G193A fusion (from UniProt Q02297 146-244) (ligand)”, for which the EC50 in assay [1] came out at 26.9 nM; in assay [2], 76.3 nM.

Consider “Trx-HRG-β1 146-244 H178A fusion (from UniProt Q02297 146-244) (ligand)”, for which the values for the EC50 in assay [1] and in assay [2] were 476 nM and 138 nM, respectively.

On to “Trx-HRG-β1 146-244 F216A fusion (from UniProt Q02297 146-244) (ligand)”, for which the EC50 came to 2550 nM in assay [1] and 173 nM in assay [2].

As to “HRG-β1 177-244 H178L with 228-231 replaced by Met, displayed on phage (Example 4 clone) (from UniProt Q02297 177-227; Q02297 232-244) (ligand)”, the figures for the EC50 Mut/WT in assay [3] and in assay [4] were 6.4 and 1.7, respectively.

On to “Trx-HRG-β1 146-244 G194A fusion (from UniProt Q02297 146-244) (ligand)”, for which the EC50 in assay [1] came out at 1210 nM; in assay [2] it was 275 nM.

As for “Trx-HRG-β1 146-244 Y224A fusion (from UniProt Q02297 146-244) (ligand)”, the values for the EC50 in assay [1] and in assay [2] were 339 nM and 24.5 nM, respectively.

In the case of “HRG-β1 177-244 H178W with 228-231 replaced by Met, displayed on phage (Example 4 clone) (from UniProt Q02297 177-227; Q02297 232-244) (ligand)”, the EC50 Mut/WT in assay [3] worked out at 1.2; in assay [4] it was 1.7.

As to “Trx-HRG-β1 146-244 R207A fusion (from UniProt Q02297 146-244) (ligand)”, the EC50 in assay [1] is 245 nM; in assay [2] it was 24.3 nM.

Take “Trx-HRG-β1 146-244 F229A fusion (from UniProt Q02297 146-244) (ligand)”: the EC50 in assay [1] is 177 nM; in assay [2], 89.9 nM.

On to “Trx-HRG-β1 146-244 N192A fusion (from UniProt Q02297 146-244) (ligand)”, for which the EC50 came to 1640 nM in assay [1] and 696 nM in assay [2].

For “Trx-HRG-β1 146-244 E195A fusion (from UniProt Q02297 146-244) (ligand)”, the EC50 in assay [1] was determined as 42 nM; in assay [2], 13.2 nM.

Turning to “Trx-HRG-β1 146-244 E215A fusion (from UniProt Q02297 146-244) (ligand)”, the concentration for a half-maximal effect (EC50) in assay [1] turned out to be 156 nM; in assay [2] it was 104 nM.

Regarding “HRG-β1 177-244 L179V displayed on phage (Example 4 clone) (from UniProt Q02297 177-244) (ligand)”, the values for the EC50 Mut/WT in assay [3] and in assay [4] were 1.5 and 1.6, respectively.

As to “Trx-HRG-β1 146-244 S177A fusion (from UniProt Q02297 146-244) (ligand)”, the figures for the EC50 in assay [1] and in assay [2] were 129 nM and 54.6 nM, respectively.

On to “Trx-HRG-β1 146-244 L179A fusion (from UniProt Q02297 146-244) (ligand)”, for which the values for the half-maximal effective concentration (EC50) in assay [1] and in assay [2] were 394 nM and 51.7 nM, respectively.

Take “HRG-β1 177-244 H178E displayed on phage (Example 4 clone) (from UniProt Q02297 177-244) (ligand)”: the EC50 Mut/WT in assay [3] turned out to be 9.5; in assay [4] it was 1.7.

As to “HRG-β1 177-244 H178D L179V displayed on phage (Example 4 clone) (from UniProt Q02297 177-244) (ligand)”, the EC50 Mut/WT in assay [3] came out at 2.2; in assay [4] it was 2.

For “HRG-β1 177-244 H178L displayed on phage (Example 4 clone) (from UniProt Q02297 177-244) (ligand)”, the EC50 Mut/WT in assay [3] is 1.4; in assay [4] it was 1.2.

As to “Trx-HRG-β1 146-244 V199A fusion (from UniProt Q02297 146-244) (ligand)”, the EC50 in assay [2] turned out to be 246 nM.

With “Trx-HRG-β1 146-244 T217A fusion (from UniProt Q02297 146-244) (ligand)”, the values for the concentration giving a half-maximal response (EC50) in assay [1] and in assay [2] were 145 nM and 32.7 nM, respectively.

Take “HRG-β1 177-244 R207P displayed on phage (Example 4 clone) (from UniProt Q02297 177-244) (ligand)”: the figures for the EC50 Mut/WT in assay [3] and in assay [4] were 6.1 and 1.3, respectively.

As for “Trx-HRG-β1 146-244 F189A fusion (from UniProt Q02297 146-244) (ligand)”, the EC50 in assay [1] turned out to be 975 nM; in assay [2] it was 565 nM.

B1: HRG-β1 EGF variant E2 displayed on phage (ligand, human, not shown: large carriers)
chain: SHLVKCAEKEKTFCVNGGECFMVKDYGYLMCKCPNEFTGDRCQNYVMASGGGSGGGSGGGS
notes: monovalent phage display
Regarding B1, the results for the “EC50 (wt)/EC50 (mut)” value in assay [5] and in assay [6] were 28 ratio and 7.6 ratio, respectively.

B2: HRG-β1 EGF variant G1 displayed on phage (ligand, not shown: large carriers; small tags and cut ends)
chain: SHLVKCAEKEKTFCVNGGECFMVKDLSNPSRYLCRCSLEFTGDRCQNYVMAS-{(GGGS)3-M13 pIII C‑terminal fragment from residue 323}
modifications: ends and bridges not checked
notes: monovalent phage display, pHRG8-g3 background
For B2, the “EC50 (wt)/EC50 (mut)” value was determined as 1.2 ratio in assay [5] and 1.6 ratio in assay [6].

B3: HRG5 (HRG-β1 147-244 fused to pIII 247, displayed on phage) (ligand, human, UniProt Q02297-6 147-244, looked up, not shown: large carriers)
chain: YVSSESPIRISVSTEGANTSSSTSTSTTGTSHLVKCAEKEKTFCVNGGECFMVKDLSNPSRYLCKCPNEFTGDRCQNYVMASFYKHLGIEFMEAEELY
notes: monovalent phage display; also called pHRG5-g3
The molecule B3 came in with an EC50 in assay [7] of 4.7 nM.

B4: HRG11 (HRG-β1 177-230 fused via GGGSGGG to pIII 247, displayed on phage) (ligand, human, not shown: large carriers)
chain: SHLVKCAEKEKTFCVNGGECFMVKDLSNPSRYLCKCPNEFTGDRCQNYVMASFYGGGSGGG
notes: monovalent phage display; also called pHRG11-g3
In assay [7], B4 displayed an EC50 of 19 nM.

B5: HRG37 combination variant displayed on phage (ligand, not shown: large carriers; small tags and cut ends)
chain: WELVPCGWDREGFCVNGGECFMVKDLSNPSRYLCKCPNEFTGDRCQNYVIAS-{(GGGS)3-M13 pIII C‑terminal fragment from residue 323}
modifications: ends and bridges not checked
notes: as for B2
On to B5, for which, in assay [5], the “EC50 (wt)/EC50 (mut)” value is 13 ratio.

B6: HRG-β1 EGF variant A3 displayed on phage (ligand, human, not shown: large carriers)
chain: WELVPCAEKEKTFCVNGGECFMVKDLSNPSRYLCKCPNEFTGDRCQNYVMASGGGSGGGSGGGS
notes: as for B2
For B6, the “EC50 (wt)/EC50 (mut)” value in assay [5] was found to be 0.96 ratio; in assay [6], 1.1 ratio.

B7: HRG-β1 EGF variant D4 displayed on phage (ligand, human, not shown: large carriers)
chain: B6 chain with W1S, E2H, P5K, F21Y, M22R, D25T
notes: as for B2
Take B7: the “EC50 (wt)/EC50 (mut)” value in assay [5] worked out at 2.9 ratio; in assay [6], 5 ratio.

B8: HRG-β1 EGF variant I2 displayed on phage (ligand, human, not shown: large carriers)
chain: B6 chain with W1S, E2H, P5K, N47H, M50I
notes: as for B2
For B8, the “EC50 (wt)/EC50 (mut)” value turned out to be 20 ratio in assay [5] and 10 ratio in assay [6].

B9: HRG-β1 EGF variant I1 displayed on phage (ligand, human, not shown: large carriers)
chain: B6 chain with W1S, E2H, P5K, N47W, M50I
notes: as for B2
Consider B9, for which, in assay [5], the “EC50 (wt)/EC50 (mut)” value is 13 ratio.

B10: HRG-β1 EGF variant B3 displayed on phage (ligand, human, not shown: large carriers)
chain: B6 chain with W1S, E2H, P5K, A7G, K9E, E10R, K11E, T12G
notes: as for B2
As to B10, the “EC50 (wt)/EC50 (mut)” value in assay [5] turned out to be 4.7 ratio; in assay [6], 1.7 ratio.

B11: HRG90 (HRG-β1 EGF Met226Ile) displayed on phage (ligand, human, not shown: large carriers)
chain: B6 chain with W1S, E2H, P5K, M50I
notes: monovalent phage display
With B11, the “EC50 (wt)/EC50 (mut)” value in assay [5] was found to be 6.3 ratio.

B12: HRG73 combination variant displayed on phage (ligand, human, not shown: large carriers)
chain: SHLVKCGEEREGFCVNGGECYRVKTYGYLMCKCPNEFTGDRCQHYVIASGGGSGGGSGGGS
notes: monovalent phage display; also called B3+D4+E2+I2
Consider B12, for which the “EC50 (wt)/EC50 (mut)” value was 56 ratio in assay [5] and 16 ratio in assay [6].

B13: HRG6 (HRG-β1 177-227 fused to pIII 247, displayed on phage) (ligand, human, UniProt Q02297-6 177-227, looked up, not shown: large carriers)
chain: SHLVKCAEKEKTFCVNGGECFMVKDLSNPSRYLCKCPNEFTGDRCQNYVMA
modifications: not fully specified (C-terminus); ends and bridges not checked
notes: monovalent phage display; Ala227 restored from pHRG1-g3; also called pHRG6-g3
B13 had an EC50 in assay [7] of 40 nM.

B14: HRG-β1 EGF variant E8 displayed on phage (ligand, not shown: large carriers; small tags and cut ends)
chain: SHLVKCAEKEKTFCVNGGECFMVKDTKYRGCKCPNEFTGDRCQNYVMAS-{(GGGS)3-M13 pIII C‑terminal fragment from residue 323}
modifications: ends and bridges not checked
notes: monovalent phage display; library E carries the 202-204 deletion
For the molecule B14, the “EC50 (wt)/EC50 (mut)” value in assay [5] was determined as 17 ratio.

B15: HRG4 (HRG-β1 147-227 fused to pIII 247, displayed on phage) (ligand, human, UniProt Q02297-6 147-227, looked up, not shown: large carriers)
chain: YVSSESPIRISVSTEGANTSSSTSTSTTGTSHLVKCAEKEKTFCVNGGECFMVKDLSNPSRYLCKCPNEFTGDRCQNYVMA
notes: range 147-227; monovalent phage display; also called pHRG4-g3
On to B15, for which the concentration giving a half-maximal response (EC50) in assay [7] came out at 38 nM.

For the origin of these results see patent publication US20030129688A1 (published 2003).
